The values below come from PMC4928094, “The first characterization of multidrug and toxin extrusion (MATE/SLC47) proteins in zebrafish (Danio rerio)” (Scientific Reports, 2016).

Holding throughout (assay): cells, lysate or membranes
Conditions in all cases: dye uptake, HEK293T, mean ± SD

Substrate in data set [1]: COc1ccc2cc3[n+](cc2c1OC)CCc1cc2c(cc1-3)OCO2
Method: (§1) Calibration curves for all substrates were generated in 0.1% SDS and in the cell matrix dissolved in 0.1% SDS. Resulting linear calibration curves were the same in the SDS and in the dissolved cell matrix. Using the calibration curves, uptake was expressed as pmol of substrate per mg of protein per minute. Total cell protein content was determined according to the Bradford method[33].
(§2) All assays were performed in 3–5 independent experiments run in triplicates. […] All calculations were performed using GraphPad Prism 5.00 for Windows (GraphPad Software, San Diego, California, USA) as described below. The kinetic parameters, Km and Vmax values were calculated using the Michaelis-Menten equation,
(§3) where V is velocity (picomoles of substrate per milligram of proteins per minute), Vmax is maximal velocity, [S] is substrate concentration and Km is the Michaelis Menten constant.
Substrate in data set [2]: N=C(N)NC(=O)c1nc(Cl)c(N)nc1N
Method: as §1, §2, §3
Substrate in data set [3]: CN(C)c1ccc(/C=C/c2cc[n+](C)cc2)cc1
Method: as §1, §2, §3
Substrate in data set [4]: COC(=O)c1ccccc1-c1c2ccc(=N)cc-2oc2cc(N)ccc12
Method: as §1, §2, §3
Where [5] appears, read: other: Mate8, NT = no transport found.
The mark [6] stands for this setting: other: Mate3, triplicate, representative experiment.

B1: zebrafish Mate6 (Danio rerio) (protein)
chain: MPEAGGPLANTEQITEATAPSSKLLGCSCVRRWVPLAYREELYHVLCLTGPLLISRILSFLLPFVTTIFCGHLGNAELAGYALASATVNVTTTATGCGLALACDTLVSQTFGSKNHKRVGEILQRSMLILLLFCLPCWAILINAESILLALKQEPEVARIAQLYVTAYLPAVPAMFLHYLQVSYLQNQGIILPQMYTAVAANILNVATNYILLHAMKLGVKGSAAANSISQITICLLLFAYIRWKKLHLKTWGGWSTASLQEWGSYMKLAIPSTLMLCFEWWIYEIGGFLAGMLGEVDLAAQHVLLEIGSIAYMFPLGVHAAACVRVGNALGAGDTVRALITSKVTLMISGILAFAQGIGIALTKSKLGYIFTSDESIVAIVSQNLTLYVFLQFFDALVCVCSGILLGAGKQKIAAVSNLICYYCIGLPVGISLMFLAELRILGLWLGLLICVIIQTCFFTTLIFKLDWKKVTEQAQKRAGKHAKVVCLPKAPLIGPVVETLVSEDQDNTEQTDGTSSIPEPWDDITGNKAQLTSSSSEVSSYIQVSTQDQDKLASECGEGQPKVLLSIKQLVLRRGLTLLITLLILIAGITVHVVCPLPEHSVQRQSNFTNDSGNFSTPFSILNITMS
As to B1, the Km came out at 8.35 ± 1.00 µM in data set [1] (other: Mate6), 11.1 ± 2.12 µM in data set [2] (other: Mate6), 6.23 ± 1.02 µM in data set [3] (other: Mate6) and 1.73 ± 0.16 µM in data set [4] (other: Mate6). In addition, the Vmax in data set [1] (other: Mate6) is 215 ± 9.72 pmol/mg protein/min; in data set [2] (other: Mate6) it was 24.8 ± 1.54 pmol/mg protein/min; in data set [3] (other: Mate6) it was 160 ± 10.8 pmol/mg protein/min.

B2: zebrafish Mate8 (Danio rerio) (protein)
chain: MDVSSPTTEASSMEPSTKLFCCRSVRRCIPLVYRQELYHILCMTGPLVASRILNYLLPFVITMFCGRLGNSVLAGYGMASATINITTAATGGGLALAADTLISQTFGGKNLRRVGIILQRSVLILLLFCLPCCALLINTQPILLLLRQDPEVARIAQLYVVCYLPAVPAMFLHQLQVAYLQNQGVILPQMYAGIAANVANVLTNYILLHWLELGVYGSAAANTISQIYICAFLYLYIRWKKLHVETWGGWSCDSLQEWDGYMKLAIPSTMMLCFEWWIYEVGGFLAGMLGELDLAAQHAVIMLAFINYMFPLGIQGAACVRVGNALGAGDTAGAIRTSKVSLTCTAALAVLQGLVLVSTKTVIGFLFTSDRHIVALVSKLLNVYCVLQFFDGLVCVSMGILLGSGQQKIAAVANFFGYYCIGLPLGTSLMFAAKLDVVGFWLGLLICVCVQSSFFIGVIFKFNWERVTKEAVERAGRTKISAMTAPDSITARHRENGDEYITVSAADPNVEPNATGVEEKPPVLLSTSQLVLRRGLTTLAALLILAGGITVHLIVPLPQMFYGAAANFTLNSNFTTPSSFIHSTSASL
Turning to B2, the figures for the Km in data set [3] (setting [5]) and in data set [4] (setting [5]) were 2.34 ± 0.37 µM and 0.88 ± 0.14 µM, respectively. Moreover, the Vmax in data set [3] (setting [5]) was 22.2 ± 1.09 pmol/mg protein/min.

B3: zebrafish Mate3 (Danio rerio) (protein)
chain: MDSITSYNVTQMNGDTKQEKCDDVLSTSSTQKFCGGCRKKLRSLLPVNYKTEIVELLKLAGPVFISQLMIFLISFVSTVFCGHLGKTELAGVALAIAVINVTGISIGSGLASACDTLISQTFGSNNLKRVGVILQRGILILLLACFPCWALLINTEPILLAVRQSPNVASLSQLYVKIFMPALPAAFMYQLQGRYLQNQGIIWPQVITGAAGNILNALINYVFLHLLELGVAGSAAANTISQYSLAVFLYVYIRWKNLHKATWDGWSRDCLQEWGAFIRLALPSMLMLCVEWWTYEIGGFLAGLISETELGAQSVVYELATIAYMFPLGFAVAASVRVGNALGAGNTERAKLSAKVALVCGVLVSCVVATLIGCTKDVIAYIFTTEEEIVSRVSQVMIMYGFFHLFDAIAGITGGIVRGAGKQLLGALCNIVGYYFVGFPTGVSLMFALSMGIIGLWIGFFGCVFLQSLFFIILIYKLDWKKATQEALIRAGVQLTETKDESFGLENKGCTEEAAKESQITEEGLTDANTDLEGLSKGGEGISEAGAKTTVGAVLTTKQLIVRRGLAVLLMVLILAGGIVLNEMLVRYLR
As to B3, the Michaelis-Menten constant (Km) in data set [1] (setting [6]) worked out at 14.4 ± 5.14 µM; in data set [2] (setting [6]) it was 33.4 ± 4.57 µM; in data set [3] (setting [6]), 13.4 ± 1.55 µM; in data set [4] (setting [6]), 8.52 ± 1.25 µM. Also, the Vmax in data set [1] (setting [6]) is given as 242 ± 46.9 pmol/mg protein/min; in data set [2] (setting [6]), 53.1 ± 4.0 pmol/mg protein/min; in data set [3] (setting [6]), 296 ± 14.0 pmol/mg protein/min.
